This is an account of results in PMC7949043, “Allosteric regulation of the nickel-responsive NikR transcription factor from Helicobacter pylori”.

Substitutions are numbered along the chain they refer to.

The target in data set [1] is T1, HpNikR (Helicobacter pylori G27 (strain from …, UniProt A1YSQ9 1-148)).
T1 sequence: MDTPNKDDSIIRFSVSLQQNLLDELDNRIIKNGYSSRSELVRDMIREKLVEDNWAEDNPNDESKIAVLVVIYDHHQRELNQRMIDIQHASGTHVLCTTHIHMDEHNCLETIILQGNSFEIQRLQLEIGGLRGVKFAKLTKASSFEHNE
Description: fluorescence anisotropy; Ni(II) 1.2 eq per monomer; Hill n = 1.8 ± 0.1; FA: 5 nM labeled DNA, 20 mM Tris pH 7.6, 100 mM NaCl, 3 mM MgSO4, temperature not stated (metal loading at room temperature); 19F-NMR: same buffer with 10% D2O, 400-900 uM monomer, DNA 1 eq per tetramer, variable temperature from 4 C. The following applies: protein: recombinant; tags: none; chain copies: 4; label: fluorescein at central T in the spacer of strand 1 (printed [F] after T14); blunt.

The target of data set [2] is T1, HpNikR. Description: fluorescence anisotropy; Ni(II) 1.2 eq per monomer; Hill n = 1.9 ± 0.2; FA: 5 nM labeled DNA, 20 mM Tris pH 7.6, 100 mM NaCl, 3 mM MgSO4, temperature not stated (metal loading at room temperature); 19F-NMR: same buffer with 10% D2O, 400-900 uM monomer, DNA 1 eq per tetramer, variable temperature from 4 C. The following applies: protein: recombinant; tags: none; chain copies: 4; label: fluorescein at central T in the spacer of strand 1 (printed [F] after T14); blunt.

B1: ureA-F (32 bp ureA promoter) (dsDNA)
DNA 1: ATATAACACTAATTCATTTTAAATAATAATTA
DNA 2: TAATTATTATTTAAAATGAATTAGTGTTATAT
On to B1, for which the Kd with HpNikR [1] amounted to 4.5 ± 0.6 nM.

B2: ureA-perf-F (32 bp) (dsDNA)
DNA 1: B1 DNA 1 with A6T, C7T, C9T
DNA 2: B1 DNA 2 with G24A, G26A, T27A
Turning to B2, the Kd with HpNikR [2] came out at 4.7 ± 0.4 nM.
